The data set concerns the target AR co-purified in the TAP-LSD1/AR complex (UniProt P10275).

AR co-purified in the TAP-LSD1/AR complex, sequence (P10275 whole entry, one chain of several): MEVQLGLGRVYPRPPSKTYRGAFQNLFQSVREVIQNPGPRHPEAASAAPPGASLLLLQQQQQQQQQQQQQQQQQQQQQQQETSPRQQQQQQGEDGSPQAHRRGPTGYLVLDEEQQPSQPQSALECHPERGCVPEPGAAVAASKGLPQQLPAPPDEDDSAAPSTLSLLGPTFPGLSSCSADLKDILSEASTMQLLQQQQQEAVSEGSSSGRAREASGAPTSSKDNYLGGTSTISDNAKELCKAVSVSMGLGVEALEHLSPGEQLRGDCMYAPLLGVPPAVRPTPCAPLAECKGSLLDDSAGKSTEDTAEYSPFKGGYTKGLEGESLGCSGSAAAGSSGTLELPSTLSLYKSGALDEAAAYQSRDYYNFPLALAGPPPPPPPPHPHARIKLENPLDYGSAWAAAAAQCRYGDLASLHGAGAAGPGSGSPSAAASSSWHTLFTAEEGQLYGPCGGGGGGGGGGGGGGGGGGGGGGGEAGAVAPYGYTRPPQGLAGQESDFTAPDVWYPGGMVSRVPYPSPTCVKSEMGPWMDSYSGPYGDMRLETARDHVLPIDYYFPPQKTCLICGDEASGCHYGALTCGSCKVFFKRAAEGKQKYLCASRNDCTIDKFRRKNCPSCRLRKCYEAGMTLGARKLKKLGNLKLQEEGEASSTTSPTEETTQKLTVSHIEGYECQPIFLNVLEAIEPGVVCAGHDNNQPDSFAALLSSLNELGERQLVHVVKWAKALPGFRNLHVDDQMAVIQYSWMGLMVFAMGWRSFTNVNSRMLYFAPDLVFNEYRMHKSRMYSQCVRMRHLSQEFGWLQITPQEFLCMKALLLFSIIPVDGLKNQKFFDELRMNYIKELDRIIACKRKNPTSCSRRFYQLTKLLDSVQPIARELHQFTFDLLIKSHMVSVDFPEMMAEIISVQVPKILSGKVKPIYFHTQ

Take “TAP-LSD1 (LSD1 with N-terminal TAP tag), tandem affinity purified”: the “demethylation of dimethyl H3-K9 on HeLa nucleosomes in vitro (Western blot)” value is given as “The TAP-LSD1/AR complex demethylated dimethyl H3-K9 in vitro, whereas TAP-LSD1 or the TAP control failed to do so”.
